# ± gives the standard deviation of the averaged measurements.
# Test system: Saccharomyces cerevisiae
# Assay: protein stability index of tFT-peptide fusion (C-terminal peptide) (PSI (0-1 scale)); higher = more stable (slower turnover)
# Settings: genetic background: wild type; temperature: 30 C
# 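Also: PSI is a weighted mean of sequencing reads over stability bins, variants kept only with over 10 reads, mCherry proximal and sfGFP distal, peptide attached via GGGS linker.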
row,Sequence,protein stability index
1,PNSPRCAIASPL,0.702 ± 0.046
2,PPAAPPPPPLPP,0.735 ± 0.039
3,PPAAPSPPPPRP,0.719 ± 0.012
4,PPADKRILQQIR,0.692 ± 0.039
5,PPAHPPPRLHPP,0.541 ± 0.018
6,PPALHPPPLPPR,0.646 ± 0.028
7,PPALPLFPNAAG,0.709 ± 0.049
8,PPALPPCRSRLV,0.72 ± 0.049
9,PPALRPSPPLSP,0.698 ± 0.065
10,PPAPFLLNPVPP,0.727 ± 0.015
11,PPAPLALPRLPS,0.715 ± 0.061
12,PPAPLLLPLSRP,0.735 ± 0.0098
13,PPAPPAFPRFGT,0.703 ± 0.0051
14,PPAPPHALPPGP,0.671 ± 0.033
15,PPAPPPADLGPP,0.644 ± 0.093
16,PPAPPPAPPHSS,0.633 ± 0.061
17,PPAPPPHPPLPP,0.706 ± 0.043
18,PPAPPPPPIRPP,0.696 ± 0.033
19,PPARHSPIFPVH,0.786 ± 0.022
20,PPASPPAYVTHP,0.685 ± 0.049
21,PPASSARPLLFL,0.6664 ± 0.0053
22,PPCPPPPAPPPP,0.687 ± 0.044
23,PPCVSGHPLRYS,0.727 ± 0.045

row,Sequence,protein stability index
1,PPDGRPQEVWVP,0.72 ± 0.037
2,PPDHLTHPHIVN,0.693 ± 0.013
3,PPDLPPPPPPPT,0.7 ± 0.055
4,PPDPNCLPKQTS,0.752 ± 0.058
5,PPDPSTLSTSPS,0.689 ± 0.042
6,PPEPPLSSLRRP,0.674 ± 0.073
7,PPFASPSPLPPP,0.7006 ± 0.0069
8,PPFFSHDWYLRV,0.695 ± 0.076
9,PPFLPASHPAPS,0.824 ± 0.065
10,PPFPPPLLPPSP,0.732 ± 0.036
11,PPFSSRTRPPLC,0.67 ± 0.023
12,PPFVSPQRQRLV,0.669 ± 0.019
13,PPGAQPRSPSPL,0.771 ± 0.08
14,PPGPAPPHAASH,0.6421 ± 0.0029
15,PPGPPIAPLFPP,0.657 ± 0.0071
16,PPGPSVPPHRPP,0.754 ± 0.049
17,PPHAPLPPPTPP,0.634 ± 0.037
18,PPHAPTRTTSGP,0.6388 ± 0.0013
19,PPHLCPTSLTTL,0.642 ± 0.026
20,PPHNTPLAPSQY,0.659 ± 0.0094
21,PPHPDTSPSFPP,0.6787 ± 0.0022
22,PPHPGALPPAAA,0.631 ± 0.035
23,PPHPPLPARPSP,0.681 ± 0.041

row,Sequence,protein stability index
1,PPHPPPPLLPAP,0.715 ± 0.051
2,PPHPSPPTPPPH,0.687 ± 0.017
3,PPIPPALLLVSP,0.633 ± 0.0095
4,PPIVHPGSLRSA,0.673 ± 0.024
5,PPIVPFGSPVVL,0.728 ± 0.026
6,PPKEEPRWATGD,0.693 ± 0.043
7,PPLIPPSCSPLH,0.6864 ± 0.0027
8,PPLLLSPCPSLP,0.7229 ± 0.0034
9,PPLLPLCVPPPP,0.71 ± 0.033
10,PPLLPPGPPSPP,0.588 ± 0.01
11,PPLLPPPPRRPP,0.643 ± 0.0012
12,PPLLTPSVPFSS,0.715 ± 0.033
13,PPLPFPPLPPSP,0.74 ± 0.063
14,PPLPFPPPPLPP,0.613 ± 0.029
15,PPLPLLPSPSPL,0.753 ± 0.086
16,PPLPLLSTCAGA,0.69 ± 0.15
17,PPLPLSTLFLSA,0.712 ± 0.041
18,PPLPPAPPPSPP,0.652 ± 0.029
19,PPLPPPCPLPRN,0.7711 ± 0.0013
20,PPLPPPPPDFSP,0.761 ± 0.18
21,PPLPPPPPRPPP,0.611 ± 0.086
22,PPLPPPRPLSPC,0.713 ± 0.094
23,PPLPPPRRSSPP,0.705 ± 0.02

row,Sequence,protein stability index
1,PPLPPRSISPVL,0.737 ± 0.11
2,PPLPPRTPPPLS,0.704 ± 0.077
3,PPLPSPASPRTP,0.721 ± 0.031
4,PPLPSPPAHSRS,0.678 ± 0.02
5,PPLRLRLPPAVL,0.629 ± 0.095
6,PPLSPPALPPPL,0.672 ± 0.0076
7,PPLSSFSHHSFG,0.715 ± 0.069
8,PPLTPLPLGSPP,0.717 ± 0.027
9,PPLTRPPTPVPP,0.6626 ± 0.0048
10,PPLVHHSTLPPA,0.679 ± 0.022
11,PPLVPRTSPSPS,0.666 ± 0.012
12,PPLYPGSKVQLL,0.672 ± 0.011
13,PPNHRAGSWLAR,0.655 ± 0.012
14,PPNPFRHTPSIP,0.736 ± 0.027
15,PPNPNEPTQTPA,0.711 ± 0.013
16,PPNPPPPPLPPP,0.666 ± 0.068
17,PPPAASCLLLPL,0.699 ± 0.028
18,PPPALLAPPLPF,0.756 ± 0.096
19,PPPAPAPPLTSS,0.71 ± 0.023
20,PPPAPLALTPSL,0.71394 ± 0.00049
21,PPPAPPPCAPTP,0.713 ± 0.043
22,PPPAPSPPPSPP,0.611 ± 0.0099
23,PPPAPSSPVLVP,0.686 ± 0.037

row,Sequence,protein stability index
1,PPPARSPLPLPP,0.742 ± 0.018
2,PPPFPLLSPPPL,0.808 ± 0.0097
3,PPPHPHLPPHSD,0.69 ± 0.06
4,PPPHPLLRPSPS,0.737 ± 0.011
5,PPPHPPHSALPS,0.762 ± 0.021
6,PPPHPPLPPPTP,0.678 ± 0.039
7,PPPHPPPPAPPY,0.735 ± 0.019
8,PPPHPTLSPLVP,0.676 ± 0.013
9,PPPHTHPPTPLL,0.689 ± 0.011
10,PPPLASLPSFLR,0.739 ± 0.011
11,PPPLLPPRAPSP,0.6294 ± 0.0031
12,PPPLLTSSPPPR,0.712 ± 0.025
13,PPPLPASPPPPY,0.683 ± 0.035
14,PPPLPLSLCEPL,0.7 ± 0.019
15,PPPLPPALSPSH,0.679 ± 0.07
16,PPPLPPPHPSPI,0.669 ± 0.019
17,PPPLPPPSLLPT,0.762 ± 0.043
18,PPPLPSIPPFVL,0.708 ± 0.094
19,PPPLPSPAPPPP,0.709 ± 0.053
20,PPPLSPPRPPRH,0.701 ± 0.022
21,PPPNSTPNPLST,0.7394 ± 0.0058
22,PPPPAHSYHPPS,0.714 ± 0.16
23,PPPPGPSSPHPP,0.707 ± 0.041

row,Sequence,protein stability index
1,PPPPHCPQPPPP,0.72 ± 0.018
2,PPPPHDLLTPPS,0.736 ± 0.0079
3,PPPPLAPSPPPS,0.6542 ± 0.0025
4,PPPPLPLPPSLP,0.5979 ± 0.0054
5,PPPPLPPALFPP,0.589 ± 0.013
6,PPPPLPPFPPHP,0.659 ± 0.017
7,PPPPLPPSSPPL,0.751 ± 0.027
8,PPPPPACRLCFF,0.634 ± 0.1
9,PPPPPLPQAPPT,0.687 ± 0.014
10,PPPPPPLPPLSP,0.717 ± 0.035
11,PPPPPPLPPSAA,0.711 ± 0.0091
12,PPPPPPNLASHP,0.707 ± 0.0031
13,PPPPPPPCFFPP,0.715 ± 0.048
14,PPPPPPPHPTPT,0.676 ± 0.039
15,PPPPPPPLPPPP,0.667 ± 0.015
16,PPPPPPPPAPPY,0.725 ± 0.017
17,PPPPPPPPAVVA,0.569 ± 0.028
18,PPPPPPPPPHSP,0.769 ± 0.01
19,PPPPPPPPPLAF,0.653 ± 0.12
20,PPPPPPPPRPPS,0.651 ± 0.069
21,PPPPPPPPTPAS,0.654 ± 0.023
22,PPPPPPPPVPLL,0.708 ± 0.017
23,PPPPPPPVLSSI,0.647 ± 0.076

row,Sequence,protein stability index
1,PPPPPPSAPPPS,0.669 ± 0.026
2,PPPPPPSISPSP,0.5389 ± 0.0053
3,PPPPPPSPHPPS,0.726 ± 0.024
4,PPPPPQLPQCPP,0.711 ± 0.042
5,PPPPPRPPAGFL,0.924 ± 0.095
6,PPPPPRPPPARL,0.672 ± 0.06
7,PPPPPRPSPPHP,0.833 ± 0.022
8,PPPPPSSPPLPP,0.64 ± 0.083
9,PPPPPSVTRTQP,0.649 ± 0.043
10,PPPPPTSPPPHP,0.706 ± 0.032
11,PPPPRLSLHSPP,0.713 ± 0.0085
12,PPPPRPACLPSN,0.727 ± 0.018
13,PPPPRPSSDRFR,0.684 ± 0.016
14,PPPPSLPHTIGP,0.643 ± 0.042
15,PPPPSLPPSFPS,0.67 ± 0.072
16,PPPPSPPPIPSP,0.706 ± 0.04
17,PPPPSRPPPAPR,0.701 ± 0.053
18,PPPPSRPPPPRL,0.789 ± 0.021
19,PPPPTLSPPRSL,0.718 ± 0.034
20,PPPPTPRPPSSL,0.728 ± 0.061
21,PPPPVPPPALPL,0.644 ± 0.045
22,PPPPVPPPPSSL,0.749 ± 0.037

# From the supplement of paper PMC10724198
